Test results reported in patent US20230279368A1 (NORTH CAROLINA STATE UNIVERSITY, published 2023).

Assays:
[1] = molecular target: the molecule itself; experiment: size exclusion chromatography, self-association (homodimer); data not shown
[2] = molecular target: the molecule itself; experiment: size exclusion chromatography and SAXS, self-association (homodimer)
Description: Size Exclusion Chromatography. To determine molecular mass, NTA purified samples were subjected to size exclusion chromatography (Superdex 200 10/300 GL, GE Healthcare) equilibrated with SEC buffer (100 mM Tris pH7.5, 200 mM sodium chloride). The protein sample equilibrated in SEC buffer was applied to the column. The mass of BHT₍₂₃₋₅₉₄₎-HIS was calculated based on the standards in the high molecular weight gel calibration kit (Cytiva Life Sciences*).
Small angle X-ray scattering: Data Collection and Analysis. rBHT₍₂₃₋₅₉₄₎-HIS samples at 1 mg/ml and 4 mg/ml 5 mM in sodium phosphate buffer at pH 5 were measured on a Rigaku Bio-SAXS 2000. The instrument uses Cu Kα radiation (λ=1.54 Å) and was collimated to provide a sufficient Q-range of 0.01-0.67 Å⁻¹. Measurements were performed at ambient temperature. Samples were measured for a total of 40 min in 5 min scans. Data were corrected for transmission and sample background. […]
The dimer conformation was further validated in solution by small X-ray scattering (SAXS) (FIG. 7A). […] Molecular mass were calculated using the method described by Rambo and Tamer. The molecular mass determined from SAXS (˜169 KDa) confirmed that BHT forms a dimer in solution Table 3. […] The Rg and Dₘₐₓ of the 6M4F crystallographic dimer (molecule A and molecule C) calculated using Crysol are 34 Å and 110 Å, respectively. […]

B1: rBHT(57-594)-HIS (enzyme)
chain: AELDALWNLVEAQYPVQTAAVTTLVTVPDDYKFEADPPSYALAGYETSEIAGLKFPKGFKFGVAGAAIQVEGAAKAEGRGPSTWDYLCHHYASTQCNNYDPDITTNHYYLYPLDFARLQHLGINTYSFSISWTRIYPLGAGYVNEAGLAHYDAVIHSAKKYGLEPVGTVFHWDTPLSLMLKYGAWQDTGDQIVKDFVTYATTVFKRYGNEVKTWFTFNEPRVFCSQNSGLPYNLTYPEGINSTSAVFRCTYNVLKAHGHAVKVYRDLVASGTIAAGEIGFKSDDNYPIPARPGNADDEESAKRHEAFRIGIFAQPVYGNGDYPDVVKETVGDMLPALTDEDKGYIKGSGDIFAIDGYRTDISHAALNGIANCIRNQSDPNWPVCEEGSDPFAHVYPSGFAIGQSADPLSSWLVNSAPFIRDQLKFLTQTYPAKGGIYFSEFGWAEDAEYDRQLLYQITWDGLRTQYLTDYLSQLLLAVHKDGINLRGALTWSFVDNWEWGLGMQQKFGFQFVNQSDPDLTRTFKLSAHAYAQFGRNHLHHHHHH
notes: the entry describes its self-association into a dimer
B1: binds [1].

B2: rBHT(23-594)-HIS (enzyme)
chain: VTYPGAIPLSLTSNYETPSPTAIPLEPTPTATGTAELDALWNLVEAQYPVQTAAVTTLVTVPDDYKFEADPPSYALAGYETSEIAGLKFPKGFKFGVAGAAIQVEGAAKAEGRGPSTWDYLCHHYASTQCNNYDPDITTNHYYLYPLDFARLQHLGINTYSFSISWTRIYPLGAGYVNEAGLAHYDAVIHSAKKYGLEPVGTVFHWDTPLSLMLKYGAWQDTGDQIVKDFVTYATTVFKRYGNEVKTWFTFNEPRVFCSQNSGLPYNLTYPEGINSTSAVFRCTYNVLKAHGHAVKVYRDLVASGTIAAGEIGFKSDDNYPIPARPGNADDEESAKRHEAFRIGIFAQPVYGNGDYPDVVKETVGDMLPALTDEDKGYIKGSGDIFAIDGYRTDISHAALNGIANCIRNQSDPNWPVCEEGSDPFAHVYPSGFAIGQSADPLSSWLVNSAPFIRDQLKFLTQTYPAKGGIYFSEFGWAEDAEYDRQLLYQITWDGLRTQYLTDYLSQLLLAVHKDGINLRGALTWSFVDNWEWGLGMQQKFGFQFVNQSDPDLTRTFKLSAHAYAQFGRNHLHHHHHH
modifications: N-glycosylated at N289, N297, N431 and N569 (numbering of full-length BHT, SEQ ID NO: 1), expressed in K. pastoris
notes: the entries describe its self-association into a homodimer
B2: binds [2].

B3: rBHT(32-594)-HIS (enzyme)
chain: SLTSNYETPSPTAIPLEPTPTATGTAELDALWNLVEAQYPVQTAAVTTLVTVPDDYKFEADPPSYALAGYETSEIAGLKFPKGFKFGVAGAAIQVEGAAKAEGRGPSTWDYLCHHYASTQCNNYDPDITTNHYYLYPLDFARLQHLGINTYSFSISWTRIYPLGAGYVNEAGLAHYDAVIHSAKKYGLEPVGTVFHWDTPLSLMLKYGAWQDTGDQIVKDFVTYATTVFKRYGNEVKTWFTFNEPRVFCSQNSGLPYNLTYPEGINSTSAVFRCTYNVLKAHGHAVKVYRDLVASGTIAAGEIGFKSDDNYPIPARPGNADDEESAKRHEAFRIGIFAQPVYGNGDYPDVVKETVGDMLPALTDEDKGYIKGSGDIFAIDGYRTDISHAALNGIANCIRNQSDPNWPVCEEGSDPFAHVYPSGFAIGQSADPLSSWLVNSAPFIRDQLKFLTQTYPAKGGIYFSEFGWAEDAEYDRQLLYQITWDGLRTQYLTDYLSQLLLAVHKDGINLRGALTWSFVDNWEWGLGMQQKFGFQFVNQSDPDLTRTFKLSAHAYAQFGRNHLHHHHHH
notes: as for B1
B3: binds [1].

B4: rBHT(54-594)-HIS (enzyme)
chain: TGTAELDALWNLVEAQYPVQTAAVTTLVTVPDDYKFEADPPSYALAGYETSEIAGLKFPKGFKFGVAGAAIQVEGAAKAEGRGPSTWDYLCHHYASTQCNNYDPDITTNHYYLYPLDFARLQHLGINTYSFSISWTRIYPLGAGYVNEAGLAHYDAVIHSAKKYGLEPVGTVFHWDTPLSLMLKYGAWQDTGDQIVKDFVTYATTVFKRYGNEVKTWFTFNEPRVFCSQNSGLPYNLTYPEGINSTSAVFRCTYNVLKAHGHAVKVYRDLVASGTIAAGEIGFKSDDNYPIPARPGNADDEESAKRHEAFRIGIFAQPVYGNGDYPDVVKETVGDMLPALTDEDKGYIKGSGDIFAIDGYRTDISHAALNGIANCIRNQSDPNWPVCEEGSDPFAHVYPSGFAIGQSADPLSSWLVNSAPFIRDQLKFLTQTYPAKGGIYFSEFGWAEDAEYDRQLLYQITWDGLRTQYLTDYLSQLLLAVHKDGINLRGALTWSFVDNWEWGLGMQQKFGFQFVNQSDPDLTRTFKLSAHAYAQFGRNHLHHHHHH
notes: as for B1
B4: binds [1].
